Assay results reported in patent US20250034594A1, “RNA-GUIDED GENOME RECOMBINEERING AT KILOBASE SCALE” (THE BOARD OF TRUSTEES OF THE LELAND STANFORD JUNIOR …, priority 2021, published 2025).

Legend:
Type in all cases: cell-based
[1] = system: gene editing with Cas9; assay: Screen of 322 new SSAP proteins, gene editing activity with Cas9 (Table 5); design: Cas9 with SSAP activity: scale not given here
Outline: (§1)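 Editing screen of 322 newly identified, synthesized SSAPs, each co-used with Cas9 and with dCas9.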

[2] = system: gene editing with dCas9; assay: Screen of 322 new SSAP proteins, gene editing activity with dCas9 (Table 5); design: dCas9 with SSAP activity: scale not given here
Outline: as §1

[3] = system: gene editing with Cas9 and dCas9; assay: Screen of 322 new SSAP proteins, activity across all experiments (Cas9 and dCas9, Table 5); design: scale not given here
Outline: as §1

| Molecule | Cas9 with SSAP activity [1] | Cas9 with SSAP activity (normalized) [1] | dCas9 with SSAP activity [2] | dCas9 with SSAP activity (normalized) [2] | Activity across all experiments [3] |
| --- | --- | --- | --- | --- | --- |
| SSAP_70: SEQ ID NO: 239 (protein) SNLKNQLANKAGGTATKKQPQTMQDWIKVMEPQIKKALPSVITAERFTRMALTAISTNPKLAECTPESFMGALMNAAQLGLEPNTPLGQAYLIPYGKSVQFQVGYKGLMELAQRSGQFKSIYAHTVYENDEFEVEYGLTQNIVHKPNFDDRGKPIGFYAVYKLTNGGENFVFMTQREVEEFGKAKSKTFNNGPWKTDFEAMAKKTVLKQLLKYAPIKVEFQREIAQDATIKTEIAEDMTEVPEEMVEAEYEVVEQNTMAEDADLKGTPFETK | −1.263 | −0.349 | −4.070 | −0.652 | −2.666 |
| SSAP_293: SEQ ID NO: 462; Brevibacillus porteri (protein, Brevibacillus porter, Brevibacillus porteri) ADQNKLVVIYNNLEKLLDSKREAMPTSFNKTRFLQNCMTVLQETKDIELCNPTTVARTMLKGAFLGLDFFNKECYAVVYKGSVEFQTDYKGEVKLAKKYSTKPVREVYAKLVREGDEFAEEINSGNQTINFRPKPFNNEEILGAFAVVNYMDGTMAYDIMSKEEIEKIKENFSRKSKQTGEYSKAWVVTPGEMYKKTVLRRLCKNIDLDFDTIEQRQAFEDAGDVDFNQEVKPAQQSPLNSTVIEAEFEEVSEEQTNAAEQE | −5.271 | −0.961 | −3.846 | −0.563 | −4.559 |
| SSAP_246: SEQ ID NO: 415; Anoxybacillus (protein, listed as Anoxybacillus sp.) ATTQSLKNQIAKKQNSNIQQGVTLKQLLNSESMKKRFEEVLGKRAQQFATSILNLYNSEKMLQKCEPMSIISSAMVAASLDLPVDKNLGYMYIVPYGTTATPIMGYRGYIQLALRTGQYKHINVIEVYEGELQKWDRLTEEFEMDSKQKKSDVVVGYAAYFELINGFRKTVYWTREQIEAHRKKYSKSDFGWKNDFDAMAKKTVLKSLLSKWGILSIEMQNAFNEDEKEVDTKEVKDITSEVQEAEYIEAEAFEVPIETETPQQEEIVFDAQ | 0.824 | 0.919 | −3.897 | −0.611 | −1.537 |
| SSAP_84: SEQ ID NO: 253; Bet Fimbriiglobus ruber (protein, Fimbriiglobus ruber) TDIAHRSYSAPQLSLIRRTVAKDTNQDEFDLFIEICKQQGLDPFKKQIFAQVYNKDKADKRQIVIVTSIDGYRAKAQRCGDYRPAEEETRFEADAALKIRRQPMGSFVRSCGLQVRPGQGVVSRVGEARWDEFAPLDDAEFDWVDTGETWPDTGKPKKKKVAKSAKKTLKEGNWKNMPHVMLGKCAEAQALGGGGRKRSAACTSKRRWTRSTWT | −1.881 | −0.590 | 1.313 | 1.563 | −0.284 |
| SSAP_245: SEQ ID NO: 414; Paenibacillus macquariensis subsp. defensor (protein, listed as Paenibacillus macquariensis) SDKLLVIHKNLENLLDSKREAMPSNFNKTRFLQNCMTVLQDTRDIDKCDATSVARTMLKGAFLGLDFFNKECYAITYAGAVQFQTDYKGEKKLAKKYSVRPVRDIYAKLVKEGDDFKEEVKDGQQTIQFAPKPFNDGEVLGAFAVALFEDGGLVYEVMSKVDIETTRKNYSKQANGQAWTKSPGEMYKKTVLRRLCKNIELDFDTIEQAQAFEDSGDMDLNKEVKPPQVSPLNATVIDAEYTEIREGDPNATNQE | 0.282 | 0.572 | −3.899 | −0.575 | −1.809 |
| SSAP_271: SEQ ID NO: 440; Nocardia ninae (protein, listed as Nocardia ninae) AESISKEVARQANPLAVVAKYQNELGKSMPAAIRGDVGRWMMVAEMAVRKNPKLLSIVQADQGASLMRALIECARLGHEPGTKYFYLVPRGNQISGEEGYHGIIKRVLNSGHYQKVLARTVFERDEYSFDPLTDQLPTHVPASGERGKPVSAYAFALHWDGTPSTVAEASPERIAAAKAKSYGTDRKDSPWQSVTGVMYRKTAIRELEPYVHTSAEPQPRQDNAGSRGAVMDPSTYDDAEPLDADVLDITADQIAEHDGEGAL | 0.372 | 0.623 | −3.947 | −0.622 | −1.788 |
| SSAP_298: SEQ ID NO: 467; Nocardia aurea (protein, listed as Nocardia aurea) SESISAAADAQKVTPRIVLDRHRDAFAQVLPPTINLDRWLRLAESAINASAGLLDIFRRDRGASALKALMKCAQLGHEPGSGLFHLVPKGQAIEGWEDYKGILQRILRSALYAKVVVAPVYANDEYAFDVNVDERPRHKQAAGDRGEPVRAYAYAVHRDGSTSTIAEATPAMIAGAKAKGHKTDASTSPWQNPRAPMHQKVAVRELERFVSTSAVDLRVTGDVTDLIIEEP | 0.510 | 0.610 | −3.790 | −0.578 | −1.640 |
| SSAP_126: SEQ ID NO: 295; Marispirochaeta aestuarii (protein, listed as Marispirochaeta aestuarii) RTDGTKEAGAAATAPTEGKAPAKAHKPADTIGAMIEKLKPQIERALPKHVTPDRMARMALTAIRNNPKLGQAEAVSLMGSIIQASQLGLEPNTPLGQCYIIPYNSKNGMQAQFQMGYKGIVDLAHRSGQYRQLTAHPVDEADEFRYSYGLNPDLVHVPAEKPSGKITHYYAVYHLTNGGFDFRVWSREKVEAHAKQYSKSFSSGPWQTNFDQMACKTVMIDLLRYAPKSVEIAKATSADNRTHTINPEDPDLNIDTIDGDFELEGEER | −3.406 | −0.596 | −3.777 | −0.714 | −3.591 |
| SSAP_206: SEQ ID NO: 375; Actinopolyspora xinjiangensis (protein, listed as Actinopolyspora xinjiangensis) TGQTIGTAVAKKDDENPSAIIATNRADLARVMPSHVRTDSWVRIAQGIVRRDKNLAHAARQSPGTLMVALMEAARLGLEPGTEQYYLTPRKNKGKPEVLGIPGYQGLIELMYRSGAVSSVVVETVRENDTFQWAPGRMERPEHEADWFAINGERGQLRGVYAYAIMSNGATSKVVVLNRNDIARARDSAQGADSEHSPWKNHEEAMWLKTAARRLAKWVPTSTEDRRIVQGVAERSDQPTEAPLDLTDEPDTDQPIEGELVDEEATQ | 2.444 | 1.806 | −4.016 | −0.671 | −0.786 |
| SSAP_147: SEQ ID NO: 316; Staphylococcus felis (protein, listed as Staphylococcus felis) ANANSFKEQVSNKNEVSENNNTPQQKTKGPRQQVSDLLERMAPEIQKALPSHMSAERMARIAMTAISSNTQLLECNPRSLIGALLQASQIGLEPNTALGQAYLIPYYNRNKGEFEAQLQLSYLGLIELATRTGQYKAIYAHEVYKEDEFYYEYGLHKNLVHKPVDDPKSEPIGYYAVYHLQNGGYDFSFWTRNKVELHSGQYSKAVQKGWNSPWKTDFNAMAKKTVLKDLLKYAPKSVEVSRAVGTDSKVSEISQNGEIIDVTDYSKEEE | 0.679 | 1.062 | −4.023 | −0.498 | −1.672 |
| SSAP_86: SEQ ID NO: 255 (protein) ADLTKTANGADLAAAIGGKQAETGRATAFDLVKSMEAEFAKALPRHVPVEQFMRTAVTELRQNADLQRSTSESLLGAFLTAARLGLEVGGPMGEFYLTPRFAKLPGQDQKAWQVVPIVGYRGLVKLARNAGVGAVKAWVVYEGDHFVEGANSERGPFFDFHPVPGDPAGRKEVGVLAVARLSGGDVQHTYLTIEQVEKRKARGSAGDKGPWATDRAAMIRKSGIRALAGELPQSTLLALARVVDEEVQTYVPGSLVDVGTGELEA | 0.575 | 0.280 | −3.974 | −0.714 | −1.700 |
| SSAP_90: SEQ ID NO: 259; Xenorhabdus poinarii (protein, listed as Xenorhabdus poinarii) TNTPPLAQADLQKAQPQTKVAATKDQALIQFINKPSMKAQLAAALPRHMAPDRMIRIVTTEIRKTPALANCDMQSFVGAVVQCSQLGLEPGSALGHAYLLPFGNGKSKTGQSNVQLIIGYRGMIDLARRSGQIVSISARTVRDGDQFHYEYGLNENLTHIPGENEDAPITHVYAVARLQDGGVQFEVMTRKQVEKVREKSSAGNNGPWVTHWEEMAKKTVIRRLFKYLPVSIEMQKAVILDEKADANIDQDNAAIFEGEFEEVGNDG | −0.504 | −0.093 | −3.935 | −0.892 | −2.219 |
| SSAP_318: SEQ ID NO: 487; Shewanella morhuae (protein, listed as Shewanella morhuae) QTAQVKLSVPHQQVYQDNFNYLSSQVVGHLVDLNEEIGYLNQIVFNSLSTASPLDVAAPWSVYGLLLNVCRLGLSLNPEKKLAYVMPSWSETGEIIMKLYPGYRGEIAIASNFNVIKNANAVLVYENDHFRIQAATGEIEHFVTSLSIDPRVRGACSGGYCRSVLMDNTIQISYLSIEEMNAIAQNQIEANMGNTPWNSIWRTEMNRVALYRRAAKDWRQLIKATPEIQSALSDTEY | 0.045 | 0.060 | −3.743 | −0.597 | −1.849 |
